Laboratory results: the supplement of paper PMC9112550, “Optimization of the antimicrobial peptide Bac7 by deep mutational scanning” (BMC Biology, 2022)

tested on: Escherichia coli TOP10; test: shrunken log2 fold change of peptide-encoding DNA abundance (4.5 h post-induction vs induction); higher = less antimicrobial activity (less host growth inhibition); conditions: time post-induction: 4.5 h; library: site-saturation at positions 5, 18, 19, 20
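Note: peptides expressed intracellularly from a pBAD plasmid library in pooled LB shake-flask culture, induced with 0.3% L-arabinose, DNA abundance read by NGS, three biological replicates, DESeq2 with apeglm shrinkage.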

| Sequence | shrunken log2 fold change |
| --- | --- |
| RRIRLRPPRLPRPRPRPELQPRP | 0.328 |
| RRIRLRPPRLPRPRPRPENYPRP | -0.041 |
| RRIRLRPPRLPRPRPRPEPDPRP | 0.342 |
| RRIRLRPPRLPRPRPRPEPLPRP | 0.0706 |
| RRIRLRPPRLPRPRPRPEQCPRP | -0.0243 |
| RRIRLRPPRLPRPRPRPEQKPRP | 0.0115 |
| RRIRLRPPRLPRPRPRPERKPRP | -0.0366 |
| RRIRLRPPRLPRPRPRPESHPRP | -0.118 |
| RRIRLRPPRLPRPRPRPESPPRP | 0.124 |
| RRIRLRPPRLPRPRPRPETPPRP | 0.178 |
| RRIRLRPPRLPRPRPRPETSPRP | -0.0221 |
| RRIRLRPPRLPRPRPRPEVNPRP | 0.0855 |
| RRIRLRPPRLPRPRPRPEWCPRP | -0.131 |
| RRIRLRPPRLPRPRPRPEWKPRP | -0.16 |
| RRIRLRPPRLPRPRPRPEYFPRP | -0.0957 |
| RRIRLRPPRLPRPRPRPFACPRP | 0.119 |
| RRIRLRPPRLPRPRPRPFAHPRP | -0.367 |
| RRIRLRPPRLPRPRPRPFARPRP | -0.00783 |
| RRIRLRPPRLPRPRPRPFCMPRP | -0.623 |
| RRIRLRPPRLPRPRPRPFEAPRP | -0.256 |
| RRIRLRPPRLPRPRPRPFERPRP | 0.198 |
| RRIRLRPPRLPRPRPRPFFMPRP | -0.369 |
| RRIRLRPPRLPRPRPRPFFWPRP | 0.296 |
| RRIRLRPPRLPRPRPRPFGHPRP | -0.177 |
| RRIRLRPPRLPRPRPRPFGVPRP | 0.028 |

| Sequence | shrunken log2 fold change |
| --- | --- |
| RRIRLRPPRLPRPRPRPFHLPRP | -0.177 |
| RRIRLRPPRLPRPRPRPFHTPRP | -0.00564 |
| RRIRLRPPRLPRPRPRPFISPRP | -0.182 |
| RRIRLRPPRLPRPRPRPFKNPRP | -0.499 |
| RRIRLRPPRLPRPRPRPFLKPRP | -0.0488 |
| RRIRLRPPRLPRPRPRPFLMPRP | -0.551 |
| RRIRLRPPRLPRPRPRPFMMPRP | -0.449 |
| RRIRLRPPRLPRPRPRPFNEPRP | -0.255 |
| RRIRLRPPRLPRPRPRPFQNPRP | -0.0252 |
| RRIRLRPPRLPRPRPRPFQWPRP | -0.0972 |
| RRIRLRPPRLPRPRPRPFRMPRP | -0.0132 |
| RRIRLRPPRLPRPRPRPFSAPRP | -0.177 |
| RRIRLRPPRLPRPRPRPFSDPRP | 0.0391 |
| RRIRLRPPRLPRPRPRPFVIPRP | -0.214 |
| RRIRLRPPRLPRPRPRPFWVPRP | -0.11 |
| RRIRLRPPRLPRPRPRPFYSPRP | -0.133 |
| RRIRLRPPRLPRPRPRPFYVPRP | -0.5 |
| RRIRLRPPRLPRPRPRPGAAPRP | 0.543 |
| RRIRLRPPRLPRPRPRPGAEPRP | 0.505 |
| RRIRLRPPRLPRPRPRPGAYPRP | -0.16 |
| RRIRLRPPRLPRPRPRPGCAPRP | 0.444 |
| RRIRLRPPRLPRPRPRPGCCPRP | 0.387 |
| RRIRLRPPRLPRPRPRPGCDPRP | 0.261 |
| RRIRLRPPRLPRPRPRPGCTPRP | -0.151 |
| RRIRLRPPRLPRPRPRPGCVPRP | 0.182 |

| Sequence | shrunken log2 fold change |
| --- | --- |
| RRIRLRPPRLPRPRPRPGDCPRP | 0.0644 |
| RRIRLRPPRLPRPRPRPGDGPRP | 0.869 |
| RRIRLRPPRLPRPRPRPGELPRP | 0.0243 |
| RRIRLRPPRLPRPRPRPGFCPRP | 0.272 |
| RRIRLRPPRLPRPRPRPGFGPRP | 0.189 |
| RRIRLRPPRLPRPRPRPGGSPRP | 0.259 |
| RRIRLRPPRLPRPRPRPGHDPRP | 0.147 |
| RRIRLRPPRLPRPRPRPGKCPRP | -0.073 |
| RRIRLRPPRLPRPRPRPGLHPRP | -0.401 |
| RRIRLRPPRLPRPRPRPGLWPRP | 0.863 |
| RRIRLRPPRLPRPRPRPGLYPRP | -0.476 |
| RRIRLRPPRLPRPRPRPGMEPRP | 0.251 |
| RRIRLRPPRLPRPRPRPGNVPRP | 0.0636 |
| RRIRLRPPRLPRPRPRPGPKPRP | 0.352 |
| RRIRLRPPRLPRPRPRPGPSPRP | 0.25 |
| RRIRLRPPRLPRPRPRPGQFPRP | 0.16 |
| RRIRLRPPRLPRPRPRPGQHPRP | -0.0142 |
| RRIRLRPPRLPRPRPRPGQIPRP | 0.207 |
| RRIRLRPPRLPRPRPRPGSAPRP | 0.273 |
| RRIRLRPPRLPRPRPRPGSMPRP | -0.192 |
| RRIRLRPPRLPRPRPRPGTCPRP | 0.0703 |
| RRIRLRPPRLPRPRPRPGVMPRP | 0.0751 |
| RRIRLRPPRLPRPRPRPGWGPRP | 0.335 |
| RRIRLRPPRLPRPRPRPGWSPRP | 0.0496 |
| RRIRLRPPRLPRPRPRPGYRPRP | -0.16 |

| Sequence | shrunken log2 fold change |
| --- | --- |
| RRIRLRPPRLPRPRPRPHACPRP | 0.0658 |
| RRIRLRPPRLPRPRPRPHCDPRP | 0.00399 |
| RRIRLRPPRLPRPRPRPHCIPRP | -0.0543 |
| RRIRLRPPRLPRPRPRPHDIPRP | -0.618 |
| RRIRLRPPRLPRPRPRPHECPRP | 0.0907 |
| RRIRLRPPRLPRPRPRPHELPRP | 0.245 |
| RRIRLRPPRLPRPRPRPHFFPRP | -0.128 |
| RRIRLRPPRLPRPRPRPHGHPRP | -0.126 |
| RRIRLRPPRLPRPRPRPHIIPRP | 0.0077 |
| RRIRLRPPRLPRPRPRPHLQPRP | -0.0975 |
| RRIRLRPPRLPRPRPRPHLSPRP | -0.0728 |
| RRIRLRPPRLPRPRPRPHNFPRP | -0.115 |
| RRIRLRPPRLPRPRPRPHNIPRP | -0.049 |
| RRIRLRPPRLPRPRPRPHQTPRP | 0.001 |
| RRIRLRPPRLPRPRPRPHRSPRP | 0.0989 |
| RRIRLRPPRLPRPRPRPHSGPRP | -0.0238 |
| RRIRLRPPRLPRPRPRPHTGPRP | -0.158 |
| RRIRLRPPRLPRPRPRPHWPPRP | 0.00985 |
| RRIRLRPPRLPRPRPRPHWRPRP | 0.147 |
| RRIRLRPPRLPRPRPRPHYGPRP | -0.232 |
| RRIRLRPPRLPRPRPRPHYMPRP | -0.969 |
| RRIRLRPPRLPRPRPRPIACPRP | 0.0367 |
| RRIRLRPPRLPRPRPRPIATPRP | 0.173 |
| RRIRLRPPRLPRPRPRPICPPRP | 0.00212 |
| RRIRLRPPRLPRPRPRPICWPRP | -0.0336 |

| Sequence | shrunken log2 fold change |
| --- | --- |
| RRIRLRPPRLPRPRPRPIDGPRP | -0.0968 |
| RRIRLRPPRLPRPRPRPIDHPRP | -0.154 |
| RRIRLRPPRLPRPRPRPIDMPRP | -0.184 |
| RRIRLRPPRLPRPRPRPIERPRP | -0.155 |
| RRIRLRPPRLPRPRPRPIFCPRP | -0.314 |
| RRIRLRPPRLPRPRPRPIFDPRP | -0.0489 |
| RRIRLRPPRLPRPRPRPIFPPRP | 0.0478 |
| RRIRLRPPRLPRPRPRPIGGPRP | 0.0938 |
| RRIRLRPPRLPRPRPRPIGMPRP | 0.0212 |
| RRIRLRPPRLPRPRPRPIHQPRP | 0.0518 |
| RRIRLRPPRLPRPRPRPIKIPRP | 0.0507 |
| RRIRLRPPRLPRPRPRPIKTPRP | -0.0953 |
| RRIRLRPPRLPRPRPRPILYPRP | -0.314 |
| RRIRLRPPRLPRPRPRPIMIPRP | -0.286 |
| RRIRLRPPRLPRPRPRPIPSPRP | -0.177 |
| RRIRLRPPRLPRPRPRPIPYPRP | -0.401 |
| RRIRLRPPRLPRPRPRPIQGPRP | -0.226 |
| RRIRLRPPRLPRPRPRPIQLPRP | -0.235 |
| RRIRLRPPRLPRPRPRPIRLPRP | -0.3 |
| RRIRLRPPRLPRPRPRPITDPRP | -0.465 |
| RRIRLRPPRLPRPRPRPIVGPRP | 0.0604 |
| RRIRLRPPRLPRPRPRPIVKPRP | -0.0195 |
| RRIRLRPPRLPRPRPRPIWAPRP | 0.136 |
| RRIRLRPPRLPRPRPRPIWRPRP | 0.102 |
| RRIRLRPPRLPRPRPRPIWSPRP | -0.256 |

| Sequence | shrunken log2 fold change |
| --- | --- |
| RRIRLRPPRLPRPRPRPIWVPRP | -0.0362 |
| RRIRLRPPRLPRPRPRPIYKPRP | -0.489 |
| RRIRLRPPRLPRPRPRPIYMPRP | -0.199 |
| RRIRLRPPRLPRPRPRPKCNPRP | -0.647 |
| RRIRLRPPRLPRPRPRPKDDPRP | -0.0117 |
| RRIRLRPPRLPRPRPRPKDGPRP | -0.0687 |
| RRIRLRPPRLPRPRPRPKEEPRP | -0.0533 |
| RRIRLRPPRLPRPRPRPKESPRP | 0.0595 |
| RRIRLRPPRLPRPRPRPKFLPRP | -0.173 |
| RRIRLRPPRLPRPRPRPKGSPRP | -0.0276 |
| RRIRLRPPRLPRPRPRPKGVPRP | 0.0368 |
| RRIRLRPPRLPRPRPRPKIRPRP | -0.128 |
| RRIRLRPPRLPRPRPRPKKQPRP | -0.046 |
| RRIRLRPPRLPRPRPRPKKTPRP | 0.0684 |
| RRIRLRPPRLPRPRPRPKLGPRP | -0.123 |
| RRIRLRPPRLPRPRPRPKMAPRP | 0.259 |
| RRIRLRPPRLPRPRPRPKQWPRP | 0.176 |
| RRIRLRPPRLPRPRPRPKRKPRP | -0.314 |
| RRIRLRPPRLPRPRPRPKRMPRP | -0.029 |
| RRIRLRPPRLPRPRPRPKTDPRP | -0.233 |
| RRIRLRPPRLPRPRPRPKTEPRP | 0.14 |
| RRIRLRPPRLPRPRPRPKTIPRP | -0.109 |
| RRIRLRPPRLPRPRPRPKTNPRP | -0.0556 |
| RRIRLRPPRLPRPRPRPKTSPRP | 0.0111 |
| RRIRLRPPRLPRPRPRPKVMPRP | -0.044 |
